Laboratory results from US20240166768A1 (YEDA RESEARCH AND DEVELOPMENT, published 2024).

B1: T25 (antibody, V domains shown)
VH: EVQLVESGGGLVKPGGSLRLSCAPSGFIFSNTWMSWVRQAPGKGLEWVGHIKSKADGGTTDYAAPVKGRFTISRDDSRNTLYLQMDSLKTEDTGVYYCTTGWYSTLDYWGQGTLVTVSS
VL: QSVLTQPPSASGTPGQRVTISCSGSTSNVGTNYVYWCQQFPGAAPKLLMYRNDRRPSGVPDRFSGSKSGTSASLAISGLRSEDEADYYCAAWDDSLSSWVFGGGTKLTVL
B2: T5 (antibody, V domains shown)
VH: QVQLVESGGGVVQPGRSLRLSCAASGFTFSSHAMHWVRQAPGKGLQWVALISYDGYNKYYAESVQGRFTLSRDNSKNTLYLQMNSLRAEDTAVYYCARDRDSSGYIFDYWGQGTLVTVSS
VL: DIQMTQSPSSLSASVGDRVTITCQASQDISNYLNWYQQKPGKAPKVLIYDASNLERGVPSRFSGSGSGTAFTFTISSLQPEDIATYYCQQYDNLPSFGGGTKVEIK
B3: T14 (antibody, human IgG1, V domains shown)
VH: EVQLVESGGGLVQPGGSLRLSCAVSGFTFNNYWMTWVRQAPGKGLEWVANIKGDGSEKTYVDSVKGRFTVSRDNANNSLHLQMKSLRAEDTAVYYCARVGGGDYYDSSGYYWLDTWGQGTLVTVSS
VL: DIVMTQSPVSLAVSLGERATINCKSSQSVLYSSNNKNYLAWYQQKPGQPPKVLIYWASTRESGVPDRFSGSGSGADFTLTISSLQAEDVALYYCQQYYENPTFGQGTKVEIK
B4: T1 (antibody, V domains shown)
VH: EVQLVESGGGLEQPGRSLRLSCAASGFSFGDNAMTWFRQAPGKGLEWVGIIRAKGYGGTTEYAASVKGRFTISRDDSKSIAFLQMNNVKVEDTGVYYCAKYASGWEVGFDPWGQGTLVTVSS
VL: AIQMTQSPSSLSASVGDRVTITCRASQFIRNDLGWYQQKPGRAPKLLIYAASGLHSGVPARFSGNGSATDFTLTITSLQPEDFATYYCLQDYNFPWTFGQGTKVEIK
B5: T29 (antibody, V domains shown)
VH: QLQLQESGPGLVKPSETLSLTCTVSGGSISSSSYYWGWIRQPPGKGLEWIGSLSYTGSTYYNPSLKSRVTISLDTSKNQFSLKLSSVTAADTAVYYCARESGSGGTHTDSWGQGTLVSVSS
VL: QSVLTQPPSVSAAPGQKVTISCSGSSSNIGNNYVSWYQQLPGTAPKLLIYDNNKRPSGIPDRFSGSKSGTSATLGISGLQTGDEADYYCGTWDSSLSAWVFGGGTKLTVL
B6: T21 (antibody, V domains shown)
VH: QVQLQESGPGLVKPSQTLSLTCTVSGGSFSNSNYYWSWIRQPAGKGLEWIGHIYASAITHYNPSLKSRVTISKDTSKNQFSLNLRSVTAADTAVYFCARGFRLAAEAYYHGMDVWGQGTTVTVSS
VL: DIQMTQSPSSLSASVGDRVTITCRASQSINNFLNWYQQKPGKAPKLLIYGASSLQSGVPSRFSASGSGTDFSLTISGLIPEDFAIYYCQQSDTTPWTFGQGTKVDIK
B7: T24 (antibody, V domains shown)
VH: QLQLQESGSGLVKPSQTLSLTCAVSGGSISSSDYSWSWIRQPPGKGLEWIGYIYHSGNTYYNPSVKSRVTISLDSSKNHFSLTLTSVTAADTAIYYCARDPGGNSGWFDPWGQGALVTVSS
VL: SYELTQPTSVSVSPGQTARITCSGDALPSQYAYWYQQKPGQAPILIIYKDNKRPSGIPERFSGSSSGTRVTLTISGVQPEDEADYYCQSADRSGRYVFGTGTRVPVL
B8: T2 (antibody, V domains shown)
VH: QVQLVQSGAEVKKPGASVNVSCKASGYNFKAYGVGWVRQAPGQGLEWMGWITPYNGKTNYAQKIQGRVTMTTDTSTTTAYMELRSLQPDDTAMYFCARTPAALASFDYWSQGTLVTVSS
VL: DIQMTQSPSTLSASVGDRVTITCRASQSISSWLAWYQQKAGKAPKLLIFDASTLQSGVPSRFSGSGSGTEFSLTISSLQPDDFATYYCQQYYSYSTFGQGTKVEIR
B9: T6 (antibody, V domains shown)
VH: QVQLQQSGPGLVKPSQTLSLTCAISGDSVSSNSAAWNWIRQSPSRGLEWLGRTYYRSRWYSDYAFSVRSRIIVKADTSRNLFSLQLNSMTPEDTAIYYCARDLGIAAADWFDSWGQGTLVTVSS
VL: EIVMTQSPATLSVSPGDRATLSCRASQSVSNRLAWYQQKPGQAPRLLIYDASTRATDIPARFSGSGSGTEFTLTISSLQSEDFAIYFCHQYHNWPGFGPGTKLEIK
B10: T19 (antibody, V domains shown)
VH: EVQLLESGGGLVQPGGSLRLSCAASGFTFDNYGMSWVRQAPGKGLEWVSVISSGGVGTYYADSVKGRFIISRDNAKNTLYLQMNSLRAEDTAVYYCAKDLLRYESSGYSPWGQGTLVTVSS
VL: EIVLTQSPATLSLSPGDRATLSCRASQSVNTYLAWYQHKPGQAPRLLIYDASKRATGIPARFSGSGSGTDFTLTISSLEPEDFAVYYCQQRANRPPLTFGGGTKVEIK
B11: T4 (antibody, V domains shown)
VH: QVQLVQSGGEVKKPGASAKVSCKTSGFTFTSYGISWVRQAPGQGLEWMGWINTYNGNTKYAQRLQGRVSMTTDTSTNTAYMELRSLRSDDTAVYYCARGQGRYGDYIYNHWGQGTLVIVSS
VL: DIQMTQSPSTLSASVGDRVTITCRASQIISSWVAWYQQRPGKAPKLLIFDASILESGVPSRFSGSATGTEFSLTISGLQPDDFATYYCQHYNDFPLSFGGGTKVEIK
B12: T28 (antibody, V domains shown)
VH: QVQLQESGPGLVKPSETLSLSCAVSGGSIRGYSWSWIRQPPGKGLEWIADMLYTGTTTFNPSLKSRVTISVDTSKNQFSLKLTSVTAADTAVYYCARGPTVSGPIVVDYWGPGTLVTVSS
VL: NFMLTQPHSVSESPGKTVTISCTGSSGSIASNYVQWYQQRPGSAPTTLIYEDKQRPSGVPDRFSGSIDSSTNSASLTISGLKTEDEADYYCQSFDSSNRWVFGGGTKVTVL
B13: T18 (antibody, V domains shown)
VH: EVQLVESGGGLVQPGGSLRLSCAASGFTFSSYWMTWVRQAPGKGLEWVANIKPDGSEKNYVDSVKGRFTISRDNAENSLYLQMNSLRAEDTAVFYCARDLRYCSSTSCSPALDYWGQGTLLTVSS
VL: DIQMTQSPSSLSASVGDRVTITCRASQSIASYLNWYQQKPGRAPKLLIYAASTSGVPSRFSGSGSGTDFTLTISSLQPEDFATYYCQQSYTTPRTFGQGTKVEIK
B14: T15 (antibody, human IgG1, V domains shown)
VH: EVQLVESGGGLVQPGGSLRLSCAASGFTFNNYWMTWVRQAPGKGLEWVANVNQDGNEKNYVDSVRGRFTISRDNAKNSLHLQMKSLISDDTAVYYCARVGGGDYYDSSGYYWFDTWGQGALVTVSS
VL: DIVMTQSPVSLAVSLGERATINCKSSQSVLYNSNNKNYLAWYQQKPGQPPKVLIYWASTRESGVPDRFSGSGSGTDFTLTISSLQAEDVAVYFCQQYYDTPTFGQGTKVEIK
B15: T20 (antibody, V domains shown)
VH: QVQLQESGPGLLKPSQTLSLTCTVSGAFLNSGGYYWTWIRQHPGKGLEWIGYIYYSGTTYYNPSLKSRVTISVDTSKNQFSLNVNSVIAADTAVYYCARAPRIPFGEVIGGAAFDVWGQGTTVIVSS
VL: EIVLTQSPGTLSLSPGERATLSCRASQSVTSNFVGWYQQKPGQAPRLLIYAASSRPTGIPERFSGSGSGTDFTLTISRLEPEDFAVYYCEQYGSSPRTFGPGTKVEIK

Target: BSA (bovine, UniProt P02769)
Sequence (P02769 25-607 limits assumed): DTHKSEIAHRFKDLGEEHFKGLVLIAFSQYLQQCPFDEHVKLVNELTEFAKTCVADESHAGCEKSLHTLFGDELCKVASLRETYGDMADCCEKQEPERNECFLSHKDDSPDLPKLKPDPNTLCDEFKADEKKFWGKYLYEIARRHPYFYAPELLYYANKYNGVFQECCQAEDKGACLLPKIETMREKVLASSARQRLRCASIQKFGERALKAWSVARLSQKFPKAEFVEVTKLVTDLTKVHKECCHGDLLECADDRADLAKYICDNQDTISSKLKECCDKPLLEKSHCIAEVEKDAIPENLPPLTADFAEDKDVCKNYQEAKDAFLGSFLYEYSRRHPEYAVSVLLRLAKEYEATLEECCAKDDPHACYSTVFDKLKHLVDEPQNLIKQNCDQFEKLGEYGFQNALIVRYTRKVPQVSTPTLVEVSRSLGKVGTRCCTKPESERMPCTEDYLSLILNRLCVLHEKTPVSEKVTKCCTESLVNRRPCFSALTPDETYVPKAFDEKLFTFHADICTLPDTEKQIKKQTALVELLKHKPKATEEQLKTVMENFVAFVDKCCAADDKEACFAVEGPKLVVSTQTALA
Assay: ELISA heatmap, OD630
Experimental: ELISA reactions were carried out using flat-bottom MaxiSorp™ 96-well plates (Invitrogen). Antigen coating was performed in PBS at 1001 per well and left overnight at 4° C. For standard dose response ELISA assays, antigens were plated at a concentration of 1 μg/ml. For comparative ELISA assays with multiple antigen targets, antigens were plated at a constant molar concentration of 50 nM. The plates were washed 5 times with washing buffer (1×PBS with 0.05% Tween-20 (Sigma-Aldrich)) and incubated with 1001 blocking buffer (1×PBS with 1% BSA) for 1 h at room temperature. The blocking solution was subsequently replaced by serial dilutions of either mono- or polyclonal antibodies or serum samples for 2.5 h at RT. For standard dose response ELISA assays, antibodies were introduced over a range of dilutions whereas for ELISA screens, antibodies were introduced at 100 nM. Serum samples were assayed at a dilution of 1:100. Plates were washed 5 times with washing buffer and then incubated with anti-human IgG secondary antibody conjugated to horseradish peroxidase (HRP) (Jackson Immuno Research) in PBS at a 1:5,000 dilution. After washing the plates for additional 5 times, the plates were developed using TMB (Thermo Fisher) and absorbance was measured at 630 nm with an ELISA microplate reader (Synergy HTX plate reader, Biotek).
Strikingly, in 3/4 patients, monoclonal antibodies that bound MMP14 with various degrees of effectiveness and specificity were detected, confirming the analysis using polyclonal patient-derived antibodies. In order to further examine the specificity of the monoclonal antibodies, the binding activity of the antibodies was tested in different dilutions by ELISA.

Binding result, no binding (tested: 100 nM):
B1
B2
B3
B4
B5
B6
B7
B8
B9
B10
B11
B12
B13
B14
B15
